Results published in patent US9518268B2, “Drought tolerant transgenic plants and method of making same” (PURDUE RESEARCH FOUNDATION, priority 2013, dated 2016).

Test system: RD29B-LUC expression
Test: ABA-independent induction of RD29B-LUC in triple mutant protoplasts
Format: cell-based, Arabidopsis
Settings: abi1/hab1/abi2 protoplasts
Source text: The basal RD29B-LUC expression level was elevated in protoplasts co-transfected with PP2CA-PYL13, HAI2-PYL13, or HAI3-PYL13, which is consistent with PYL13 inhibition of these PP2Cs in an ABA-independent manner in vivo (FIG. 4A). To exclude interference by endogenous PP2Cs in wild type protoplasts and to assess the ABA-independent selective inhibition of PP2Cs by PYL13, PYL13 was co-expressed with PP2CA, HAI1, HAI2, and HAI3 in abi1/hab1/abi2 triple mutant protoplasts, as shown in FIG. 4C. After transfection, protoplasts were incubated for 4.5 h under light in the absence of ABA. Error bars indicate s.e.m. (n=3).
Expression of RD29B-LUC in the absence of ABA was increased in the transfections of PYL9-K63Q/L89F or PYL11-K39Q/L66F together with SnRK2.6 and ABF2 to a considerable level. The ABA-independent RD29B-LUC expression is about 70% of that in the presence of 5 μM ABA in the transfection of PYL11-K39Q/L66F, while about 30˜60% in the transfection of PYL9-K63Q/L89F (FIG. 4). […] RD29B-LUC was used as the ABA-responsive reporter. ZmUBQ-GUS was used as the internal control. After transfection, protoplasts were incubated for 4.5 h under light in the absence of ABA (open bars) or in the presence of 5 μM ABA (closed bars). Error bars indicate s.e.m. (n=4).
Assays for transient expression in protoplasts were performed as described (Fujii et al., 2009). Leaf strips (0.5 mm) were cut from the middle part of second leaves using a razor blade (VWR SCIENTIFIC) and submerged in 15 mL of enzyme solution containing 20 mM MES, pH 5.7, 1.5% (w/v) cellulase R10 (YAKULT PHARMACEUTICAL INDUSTRY), 0.4% (w/v) macerozyme R10 (YAKULT PHARMACEUTICAL INDUSTRY), 0.4 M mannitol, 20 mM KCl, 10 mM CaCl2, 1 mM 2-mercaptoethanol, and 0.1% BSA. The leaves were vacuum infiltrated for 30 min and then incubated without shaking for 3 h in the dark at room temperature. The enzyme/protoplast solution was diluted with 15 mL of W5 solution (2 mM MES, pH 5.7, 154 mM NaCl, 125 mM CaCl2, and 5 mM KCl) and filtered with a 75-μm nylon mesh. Protoplasts were centrifuged at 100 g for 2 min in a 30-mL round-bottomed tube (SARSTEDT), resuspended in W5 solution, and rested for 30 min at room temperature.
Before transfection, protoplasts were changed into MMg solution (4 mM MES, pH 5.7, 0.4 M mannitol, and 15 mM MgCl2) to a final concentration of 2×10^5 cells per microliter. Protoplasts (100 μl) were gently and thoroughly mixed with the plasmid DNA mixture (less than 10 μl) and 110 μl of PEG solution (40% w/v PEG-4000, 0.2 M mannitol, and 100 mM CaCl2), incubated for 5 min, washed with 440 μl of W5 solution, and resuspended in 50 μl of WI solution (4 mM MES, pH 5.7, 0.5 M mannitol, and 20 mM KCl). After transfection, protoplasts were incubated in WI solution without ABA or with 5 μM ABA under light. The protoplasts were harvested after 4.5 h, frozen in liquid N2, and stored at −80° C.
The frozen protoplasts were resuspended in 50 μl of protoplast lysis buffer containing 2.5 mM Tris-phosphate, pH 7.8, 1 mM DTT, 2 mM DACTAA, 10% (v/v) glycerol, and 1% (v/v) Triton X-100. Protoplast lysates (20 μl) were mixed with 100 μl of LUC mix (PROMEGA), and LUC luminescence was measured with a plate reader (Wallac VICTOR2 plate reader).
Protoplast lysates (2 μl) were mixed with 10 μl of 4-methylumbelliferyl β-D-glucuronide (MUG) substrate mix (10 mM Tris-HCl, pH 8, 1 mM MUG [GOLD BIOTECHNOLOGY], and 2 mM MgCl2). After the mixture was kept for 30 min at 37° C., 100 μl of 0.2 M Na2CO3 was added, and GUS activity was measured using the plate reader with the excitation filter at 355 nm and the emission filter at 460 nm.
All the plasmids used in this assay were purified with the QIAGEN Plasmid Maxi Kit or the QIAGEN Plasmid Midi Kit. The quality of plasmid DNA is important for high transfection efficiency. RD29B::LUC (7 μg of plasmid per transfection) was used as the ABA-responsive reporter. ZmUBQ::GUS (2 μg of plasmid per transfection) was used as the internal control. […]

Molecule | expression of RD29B-LUC in the absence of ABA (with PP2CA only, SnRK2.6 and ABF2 (control transfection)) | expression of RD29B-LUC in the absence of ABA (with HAI1, SnRK2.6 and ABF2) | expression of RD29B-LUC in the absence of ABA (with PP2CA, HAI2, or HAI3, SnRK2.6 and ABF2)
PYL2: Arabidopsis thaliana PYL family ABA receptor protein PYL2, AT2G26040 | an increase was not observed |  | 
PYL13: Arabidopsis thaliana PYR/PYL/RCAR family protein PYL13, SEQ ID NO: 1 (protein, listed as Arabidopsis thaliana) MESSKQKRCRSSVVETIEAPLPLVWSILRSFDKPQAYQRFVKSCTMRSGGGGGKGGEGKGSVRDVTLVSGFPADFSTERLEELDDESHVMVVSIIGGNHRLVNYKSKTKVVASPEDMAKKTVVVESYVVDVPEGTSEEDTIFFVDNIIRYNLTSLAKLTKKMMK |  | an increase was not observed | increased
